Patent publication US20120079614A1 (ROYAL INSTITUTION FOR THE ADVANCEMENT OF LEARNING MCGILL …, published 2012)

Legend:
[1] = molecular target: T1, soluble CD109 protein (full-length recombinant CD109) (human, UniProt Q6YHK3 22-1420, limits assumed); assay: SPR, BIACORE 3000; CD109 amine-coupled on CM5 chip, TGF-β as analyte
T1 construct: also called FL CD109; CD109 soluble full-length protein
T1 sequence: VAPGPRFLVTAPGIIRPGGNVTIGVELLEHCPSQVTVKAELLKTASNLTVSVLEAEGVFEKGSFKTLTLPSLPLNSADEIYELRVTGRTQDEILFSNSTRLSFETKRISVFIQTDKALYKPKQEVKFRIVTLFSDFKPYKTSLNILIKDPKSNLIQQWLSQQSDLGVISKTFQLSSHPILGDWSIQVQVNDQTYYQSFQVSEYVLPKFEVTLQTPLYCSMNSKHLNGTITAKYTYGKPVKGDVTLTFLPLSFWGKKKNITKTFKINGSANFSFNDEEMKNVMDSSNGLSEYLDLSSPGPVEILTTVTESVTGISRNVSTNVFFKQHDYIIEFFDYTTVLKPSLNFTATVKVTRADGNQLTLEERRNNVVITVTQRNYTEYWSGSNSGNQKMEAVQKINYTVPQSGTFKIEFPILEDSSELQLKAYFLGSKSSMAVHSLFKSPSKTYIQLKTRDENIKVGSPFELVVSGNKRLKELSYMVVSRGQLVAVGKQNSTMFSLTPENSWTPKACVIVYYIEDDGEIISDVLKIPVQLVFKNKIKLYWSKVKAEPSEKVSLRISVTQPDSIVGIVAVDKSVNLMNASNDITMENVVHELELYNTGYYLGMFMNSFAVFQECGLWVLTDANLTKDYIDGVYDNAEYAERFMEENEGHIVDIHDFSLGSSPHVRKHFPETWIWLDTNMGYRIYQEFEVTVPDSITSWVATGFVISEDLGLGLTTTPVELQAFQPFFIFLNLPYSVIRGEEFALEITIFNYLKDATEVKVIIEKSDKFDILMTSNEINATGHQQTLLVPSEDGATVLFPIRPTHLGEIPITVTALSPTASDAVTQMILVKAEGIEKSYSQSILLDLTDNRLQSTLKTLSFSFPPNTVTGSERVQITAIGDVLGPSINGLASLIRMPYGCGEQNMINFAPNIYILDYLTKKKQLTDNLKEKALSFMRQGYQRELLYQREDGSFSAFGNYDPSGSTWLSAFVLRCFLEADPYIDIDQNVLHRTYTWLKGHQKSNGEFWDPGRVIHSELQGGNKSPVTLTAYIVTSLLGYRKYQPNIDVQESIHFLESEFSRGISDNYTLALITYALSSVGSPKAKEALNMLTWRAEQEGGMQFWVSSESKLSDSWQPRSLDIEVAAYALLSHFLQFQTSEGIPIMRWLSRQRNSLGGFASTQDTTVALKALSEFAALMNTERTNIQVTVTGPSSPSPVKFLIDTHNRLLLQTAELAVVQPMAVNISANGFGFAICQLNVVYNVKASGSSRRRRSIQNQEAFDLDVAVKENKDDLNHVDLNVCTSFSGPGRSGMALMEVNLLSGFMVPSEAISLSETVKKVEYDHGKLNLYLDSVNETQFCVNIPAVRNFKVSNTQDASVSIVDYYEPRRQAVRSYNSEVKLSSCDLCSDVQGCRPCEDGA
Description: (§1) Surface plasmon resonance assay: CD109 protein and peptides were tested for their ability to bind TGF-β using surface plasmon resonance. CD109 protein and peptides were amine-coupled onto a gold-dextran CM5 sensor chip as the ligands and TGF-β1/2/3 in HBS-ET buffer as the analytes were pumped across the CD109 amine-coupled sensor chip and binding response was measured using BIACORE 3000™ SPR detection system.

[2] = molecular target: T2, Transforming Growth Factor-β1 (TGF-β1) (UniProt P01137 279-390, 125I label in the affinity labeling assays); assay: SPR, BIACORE 3000; Peptide A amine-coupled on CM5 chip, TGF-β1 as analyte
T2 construct: The background describes TGF-β as a 25 kDa growth factor; also called I125TGF-β1
Description: as §1

T2 sequence (P01137 279-390 limits assumed): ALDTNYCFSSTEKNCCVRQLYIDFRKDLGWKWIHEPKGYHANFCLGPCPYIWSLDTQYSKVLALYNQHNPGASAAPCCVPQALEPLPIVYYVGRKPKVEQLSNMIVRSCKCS

B1: TGF-β2 (ligand, UniProt P61812 303-414, looked up)
chain: ALDAAYCFRNVQDNCCLRPLYIDFKRDLGWKWIHEPKGYNANFCAGACPYLWSSDTQHSRVLSLYNTINPEASASPCCVSQDLEPLTILYYIGKTPKIEQLSNMIVKSCKCS
Question: With B1 as the binder, how does the Kd [1] read?
Answer: 1 nM

B2: CD109 Peptide A (CD109 amino acids 606-766) (peptide)
chain: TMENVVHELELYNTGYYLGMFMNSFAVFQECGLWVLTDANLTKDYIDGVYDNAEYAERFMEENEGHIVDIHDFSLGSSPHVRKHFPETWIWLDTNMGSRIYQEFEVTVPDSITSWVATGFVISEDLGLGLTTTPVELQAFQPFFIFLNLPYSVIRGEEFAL
notes: also called CD109-based peptide
Question: With B2 as the binder, how does the Kd [2] read?
Answer: 10 nM
